In US5681719, “DNA encoding N- and C- terminally truncated colony stimulating factor-1 variants” (Chiron Corporation, dated 1997):
“And” between values parts separate entries of the source, which are not always exact repeats. Equal entries are not always repeated.

T1: specific receptors for CSF-1 on J774.2 mouse macrophage cells (mouse) (UniProt P09581)
T1 sequence: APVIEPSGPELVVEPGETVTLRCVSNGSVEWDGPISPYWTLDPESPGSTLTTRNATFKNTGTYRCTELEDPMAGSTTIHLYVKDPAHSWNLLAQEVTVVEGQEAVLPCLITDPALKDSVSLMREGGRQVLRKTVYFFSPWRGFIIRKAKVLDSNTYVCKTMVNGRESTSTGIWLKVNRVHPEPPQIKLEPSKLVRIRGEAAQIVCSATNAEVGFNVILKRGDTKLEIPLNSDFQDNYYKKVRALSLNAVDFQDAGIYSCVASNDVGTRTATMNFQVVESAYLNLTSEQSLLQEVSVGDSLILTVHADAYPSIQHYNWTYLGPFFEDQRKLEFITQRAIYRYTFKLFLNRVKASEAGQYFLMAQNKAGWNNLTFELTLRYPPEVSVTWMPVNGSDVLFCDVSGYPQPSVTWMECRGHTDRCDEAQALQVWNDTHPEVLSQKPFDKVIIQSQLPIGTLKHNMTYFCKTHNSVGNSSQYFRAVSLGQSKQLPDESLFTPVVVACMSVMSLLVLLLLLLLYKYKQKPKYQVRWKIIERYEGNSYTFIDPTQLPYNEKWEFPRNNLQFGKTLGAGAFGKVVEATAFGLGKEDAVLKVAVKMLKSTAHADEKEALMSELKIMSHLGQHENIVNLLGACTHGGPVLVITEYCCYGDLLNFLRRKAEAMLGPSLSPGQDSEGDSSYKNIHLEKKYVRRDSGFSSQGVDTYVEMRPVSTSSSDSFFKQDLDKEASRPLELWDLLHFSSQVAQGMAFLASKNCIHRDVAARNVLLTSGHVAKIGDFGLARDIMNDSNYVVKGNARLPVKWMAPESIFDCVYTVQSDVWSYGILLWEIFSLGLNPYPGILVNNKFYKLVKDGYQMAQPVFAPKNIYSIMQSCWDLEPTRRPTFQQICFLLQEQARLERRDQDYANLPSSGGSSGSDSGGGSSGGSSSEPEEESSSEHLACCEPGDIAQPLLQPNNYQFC

T2: specific receptors for CSF-1 on J774.2 mouse macrophage cells (mouse, UniProt P09581)
T2 sequence: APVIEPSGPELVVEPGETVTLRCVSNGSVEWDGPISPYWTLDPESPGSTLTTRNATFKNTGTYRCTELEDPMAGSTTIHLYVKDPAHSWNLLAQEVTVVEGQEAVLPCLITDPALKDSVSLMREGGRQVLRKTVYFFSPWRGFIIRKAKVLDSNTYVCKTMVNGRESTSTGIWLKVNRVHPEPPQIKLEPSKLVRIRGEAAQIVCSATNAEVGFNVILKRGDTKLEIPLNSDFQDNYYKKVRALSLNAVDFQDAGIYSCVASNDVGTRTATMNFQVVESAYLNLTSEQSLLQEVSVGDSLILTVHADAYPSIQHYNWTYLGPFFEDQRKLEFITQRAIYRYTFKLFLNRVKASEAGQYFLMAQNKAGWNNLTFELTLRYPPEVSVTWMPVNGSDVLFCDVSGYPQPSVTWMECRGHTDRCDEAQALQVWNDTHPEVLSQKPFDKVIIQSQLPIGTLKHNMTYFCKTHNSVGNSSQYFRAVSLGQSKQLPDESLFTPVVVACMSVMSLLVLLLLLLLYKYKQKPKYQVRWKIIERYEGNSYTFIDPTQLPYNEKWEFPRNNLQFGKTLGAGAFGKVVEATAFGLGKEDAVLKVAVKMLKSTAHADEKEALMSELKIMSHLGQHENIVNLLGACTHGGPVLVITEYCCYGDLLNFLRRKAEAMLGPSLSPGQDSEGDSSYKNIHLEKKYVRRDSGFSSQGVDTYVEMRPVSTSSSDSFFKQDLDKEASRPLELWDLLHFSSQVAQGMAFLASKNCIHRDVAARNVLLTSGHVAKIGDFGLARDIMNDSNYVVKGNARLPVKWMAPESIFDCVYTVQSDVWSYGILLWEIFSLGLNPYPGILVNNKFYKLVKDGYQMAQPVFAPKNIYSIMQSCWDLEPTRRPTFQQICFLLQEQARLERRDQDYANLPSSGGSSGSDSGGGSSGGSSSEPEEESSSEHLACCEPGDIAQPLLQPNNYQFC


Experiments:
[1] = molecular target: T1, specific receptors for CSF-1 on J774.2 mouse macrophage cells (mouse)
[2] = molecular target: T1, specific receptors for CSF-1 on J774.2 mouse macrophage cells (mouse); remark: listed apart in the source
[3] = molecular target: rabbit antisera raised against human urinary CSF-1; assay: radioimmunoassay using anti-CSF antibodies, COS-A2 supernatant
[4] = molecular target: T2, specific receptors for CSF-1 on J774.2 …; assay: cell-based or functional assay
[5] = molecular target: rabbit antisera raised against human urinary CSF-1; assay: radioimmunoassay using anti-CSF antibodies, COS-A2 supernatant; first of three values
[6] = molecular target: T1, specific receptors for CSF-1 on J774.2 mouse macrophage cells (mouse); assay: radioreceptor assay: competition with 125I-labelled CSF-1 for receptors on J774.2 mouse macrophage cells; MIAPaCa supernatant as standard
[7] = molecular target: "Rabbit 52" polyclonal antiserum raised against purified human urinary CSF-1; assay: radioimmunoassay: competition with 125I-labelled MIAPaCa CSF-1 for Rabbit 52 antiserum; medium of SV40-infected CV-1 cells

Molecule	Bone Marrow Assay, Colony (units/ml) [1] [units/ml]	Bone Marrow Assay, Proliferation (units/ml) [1] [units/ml]	Radioimmunoassay (units/ml) [5] [units/ml]	further results
pro52 SCSF, expression product of pCSF-pro52 (ligand)	< 100	< 25		
asp59 SCSF/C∇150, expression product of pCSF-asp59-gly150 (ligand)				Mouse Bone Marrow Colony Assay, Colony Forming Units/ml (Colony Forming Units/ml) [2]: 131000
gln52 SCSF, expression product of pCSF-gln52 (ligand)	6210	2970		
asp59 SCSF/C∇158, expression product of pCSF-asp59-BamBcl (ligand)				Mouse Bone Marrow Colony Assay, Colony Forming Units/ml (Colony Forming Units/ml) [2]: 72000
SCSF/C∇150, expression product of pCSF-Gly150 (ligand) EEVSEYCSHMIGSGHLQSLQRLIDSQMETSCQITFEFVDQEQLKDPVCYLKKAFLLVQYIMEDTMRFRDNTPNAIAIVQLQELSLRLKSCFTKDYEEHDKACVRTFYETPLQLLEKVKNVFNETKNLLDKDWNIFSKNCNNSFAECSSQG				Radioimmunoassay (units/ml) [3]: 26800 units/ml; Bone Marrow Assay, Colony (units/ml) [4]: 55700 units/ml
SCSF/C∇158, expression product of pCSF-BamBcl (ligand) EEVSEYCSHMIGSGHLQSLQRLIDSQMETSCQITFEFVDQEQLKDPVCYLKKAFLLVQYIMEDTMRFRDNTPNAIAIVQLQELSLRLKSCFTKDYEEHDKACVRTFYETPLQLLEKVKNVFNETKNLLDKDWNIFSKNCNNSFAECSSQGHERQSEGS			8800	
SCSF/C∇158, expression product of pCSF-BamTGA (ligand) EEVSEYCSHMIGSGHLQSLQRLIDSQMETSCQITFEFVDQEQLKDPVCYLKKAFLLVQYIMEDTMRFRDNTPNAIAIVQLQELSLRLKSCFTKDYEEHDKACVRTFYETPLQLLEKVKNVFNETKNLLDKDWNIFSKNCNNSFAECSSQGHERQSEGS			8450	

Continued, in another order:

Bone Marrow Assay, Colony (units/ml) [1] [units/ml]	Bone Marrow Assay, Proliferation (units/ml) [1] [units/ml]	Radioimmunoassay (units/ml) [5] [units/ml]	Molecule	further results
9000	3380		asp59 SCSF, expression product of pCSF-asp59 (ligand)	
		9600	expression product of pCSF-Bam: 158 amino acids of CSF-1 fused to six vector-derived residues (ligand) EEVSEYCSHMIGSGHLQSLQRLIDSQMETSCQITFEFVDQEQLKDPVCYLKKAFLLVQYIMEDTMRFRDNTPNAIAIVQLQELSLRLKSCFTKDYEEHDKACVRTFYETPLQLLEKVKNVFNETKNLLDKDWNIFSKNCNNSFAECSSQGHERQSEGSRHDKIH	Bone Marrow Assay, Colony (units/ml) [4]: 22600 units/ml
11100	2800	3130	SCSF, expression product of pcCSF-17 (short form of human CSF-1) (ligand) EEVSEYCSHMIGSGHLQSLQRLIDSQMETSCQITFEFVDQEQLKDPVCYLKKAFLLVQYIMEDTMRFRDNTPNAIAIVQLQELSLRLKSCFTKDYEEHDKACVRTFYETPLQLLEKVKNVFNETKNLLDKDWNIFSKNCNNSFAECSSQGHERQSEGSSSPQLQESVFHLLVPSVILVLLAVGGLLFYRWRRRSHQEPQRADSPLEQPEGSPLTQDDRQVELPV	CSF-1 concentration by radioreceptor assay [6]: 2470 U/ml and 3240 U/ml; CSF-1 by radioimmunoassay (U/ml) [7]: 2340 U/ml
